Experimental data taken from PMC9482650, “Quantitative fragmentomics allow affinity mapping of interactomes” (Nature Communications, 2022).

Tests used:
Assay in all cases: holdup assay
Parameters in all cases: key: below the threshold = too weak to quantify, mostly under pKd 3.1 to 4
GRIP2_5, Q9C0E4 = molecular target: GRIP2_5, Q9C0E4
GRID2IP_2, A4D2P6 = molecular target: GRID2IP_2, A4D2P6
GORASP2, Q9H8Y8 = molecular target: GORASP2, Q9H8Y8
PICK1, Q9NRD5 = molecular target: PICK1, Q9NRD5
DLG4_3, P78352 = molecular target: DLG4_3, P78352
ARHGEF12, Q9NZN5-2 = molecular target: ARHGEF12, Q9NZN5-2
PARD3B_1, Q8TEW8 = molecular target: T1, PARD3B_1, Q8TEW8
T1 sequence (Q8TEW8 196-299, limits assumed, looked up): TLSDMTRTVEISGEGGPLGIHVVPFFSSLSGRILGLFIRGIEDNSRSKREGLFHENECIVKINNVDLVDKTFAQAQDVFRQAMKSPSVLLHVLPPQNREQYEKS

NHERF4_1, Q86UT5-2 = molecular target: NHERF4_1, Q86UT5-2
DLG1_2, Q12959 = molecular target: DLG1_2, Q12959
AHNAK1, Q09666 = molecular target: AHNAK1, Q09666
SCRIB_2, Q14160 = molecular target: SCRIB_2, Q14160
GOPC, Q9HD26 = molecular target: GOPC, Q9HD26
SNTA1, Q13424 = molecular target: T2, SNTA1, Q13424
T2 sequence (Q13424 82-180, limits assumed, looked up): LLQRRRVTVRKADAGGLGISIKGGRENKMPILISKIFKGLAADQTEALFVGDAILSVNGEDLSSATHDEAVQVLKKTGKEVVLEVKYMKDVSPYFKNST

DLG2_3, Q15700 = molecular target: DLG2_3, Q15700
GRIP2_3, Q9C0E4 = molecular target: GRIP2_3, Q9C0E4
SNTG2, Q9NY99 = molecular target: T3, SNTG2, Q9NY99
T3 sequence (Q9NY99 68-166, limits assumed, looked up): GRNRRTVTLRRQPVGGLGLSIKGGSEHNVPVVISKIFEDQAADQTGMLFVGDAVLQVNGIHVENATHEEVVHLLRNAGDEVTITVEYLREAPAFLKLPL

Inadl_2, Q8NI35 = molecular target: Inadl_2, Q8NI35
NHERF3_1, Q5T2W1 = molecular target: T4, NHERF3_1, Q5T2W1
T4 sequence (Q5T2W1 4-100, limits assumed, looked up): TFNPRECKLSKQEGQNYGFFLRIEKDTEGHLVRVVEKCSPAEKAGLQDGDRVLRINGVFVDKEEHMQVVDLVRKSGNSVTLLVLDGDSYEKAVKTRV

DFNB31_2, Q9P202 = molecular target: T5, DFNB31_2, Q9P202
T5 sequence (Q9P202 274-371, limits assumed, looked up): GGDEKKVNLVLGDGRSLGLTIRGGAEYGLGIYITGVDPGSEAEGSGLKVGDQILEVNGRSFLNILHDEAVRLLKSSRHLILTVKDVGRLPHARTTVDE

DLG5_1, Q8TDM6 = molecular target: DLG5_1, Q8TDM6
TIAM2, Q8IVF5 = molecular target: T6, TIAM2, Q8IVF5
T6 sequence (Q8IVF5 885-986, limits assumed, looked up): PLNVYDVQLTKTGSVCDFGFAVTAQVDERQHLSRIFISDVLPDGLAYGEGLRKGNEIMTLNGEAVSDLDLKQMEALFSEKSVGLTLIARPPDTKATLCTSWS

Inadl_3, Q8NI35 = molecular target: Inadl_3, Q8NI35
SNX27, Q96L92 = molecular target: SNX27, Q96L92
IL16_3, Q14005 = molecular target: IL16_3, Q14005
SHANK1, Q9Y566 = molecular target: T7, SHANK1, Q9Y566
T7 sequence (Q9Y566 658-767, limits assumed, looked up): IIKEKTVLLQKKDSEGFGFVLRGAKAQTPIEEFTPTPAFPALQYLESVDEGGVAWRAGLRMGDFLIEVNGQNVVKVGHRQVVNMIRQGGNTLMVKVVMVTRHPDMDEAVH

APBA1_1, Q02410 = molecular target: T8, APBA1_1, Q02410
T8 sequence (Q02410 651-752, limits assumed, looked up): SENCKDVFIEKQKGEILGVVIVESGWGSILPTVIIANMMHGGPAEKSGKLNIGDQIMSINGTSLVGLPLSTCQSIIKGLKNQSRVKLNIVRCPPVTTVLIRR

TJP1_3, Q07157 = molecular target: TJP1_3, Q07157
DLG4_2, P78352 = molecular target: DLG4_2, P78352
MPDZ_5, O75970 = molecular target: T9, MPDZ_5, O75970
T9 sequence (O75970 695-796, limits assumed, looked up): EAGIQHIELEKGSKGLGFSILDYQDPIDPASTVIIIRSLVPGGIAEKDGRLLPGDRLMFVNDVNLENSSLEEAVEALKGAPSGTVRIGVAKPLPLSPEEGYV

[1] = plain residues with an end cap or a label only (N-terminal biotin on a linker: ttds)
[2] = plain residues with an end cap or a label only (N-terminal biotin on a linker: ahx)
[3] = plain residues with an end cap or a label only (N-terminal biotin on a linker: ado-ado)

Chain of DLG4_2, P78352 (P78352 155-259): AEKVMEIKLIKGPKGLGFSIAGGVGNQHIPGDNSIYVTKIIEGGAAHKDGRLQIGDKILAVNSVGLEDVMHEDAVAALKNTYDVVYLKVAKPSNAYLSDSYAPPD
Chain of TJP1_3, Q07157 (Q07157 416-512): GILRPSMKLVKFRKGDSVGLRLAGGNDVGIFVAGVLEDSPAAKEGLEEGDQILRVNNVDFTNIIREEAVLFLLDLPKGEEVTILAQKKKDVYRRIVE
Chain of SCRIB_2, Q14160 (Q14160 857-960): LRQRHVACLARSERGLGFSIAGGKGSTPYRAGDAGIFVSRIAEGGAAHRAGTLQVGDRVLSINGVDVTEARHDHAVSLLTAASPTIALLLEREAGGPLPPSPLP
Chain of DLG5_1, Q8TDM6 (Q8TDM6 617-713): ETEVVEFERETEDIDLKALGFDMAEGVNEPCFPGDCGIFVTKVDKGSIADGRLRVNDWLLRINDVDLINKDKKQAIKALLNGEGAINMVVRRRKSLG
Chain of DLG1_2, Q12959 (Q12959 314-412): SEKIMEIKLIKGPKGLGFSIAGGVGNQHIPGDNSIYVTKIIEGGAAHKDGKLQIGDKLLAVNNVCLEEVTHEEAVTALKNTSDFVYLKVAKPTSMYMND
Chain of NHERF4_1, Q86UT5-2 (Q86UT5 other isoform, or with tags, fused parts or gaps): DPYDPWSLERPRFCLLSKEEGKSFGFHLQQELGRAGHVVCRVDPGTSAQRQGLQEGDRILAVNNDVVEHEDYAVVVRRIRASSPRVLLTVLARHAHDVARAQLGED
Chain of GRID2IP_2, A4D2P6 (A4D2P6 272-370): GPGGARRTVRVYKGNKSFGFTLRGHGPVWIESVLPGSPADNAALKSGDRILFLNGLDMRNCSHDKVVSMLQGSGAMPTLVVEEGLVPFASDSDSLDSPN
Chain of GRIP2_3, Q9C0E4 (Q9C0E4 238-339): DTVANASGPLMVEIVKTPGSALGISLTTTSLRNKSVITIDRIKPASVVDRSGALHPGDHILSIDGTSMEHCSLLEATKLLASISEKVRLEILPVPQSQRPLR
Chain of GRIP2_5, Q9C0E4 (Q9C0E4 544-642): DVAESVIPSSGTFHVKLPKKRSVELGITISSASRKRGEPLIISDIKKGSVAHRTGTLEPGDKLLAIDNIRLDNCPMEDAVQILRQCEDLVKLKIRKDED
Chain of Inadl_3, Q8NI35 (Q8NI35 359-469): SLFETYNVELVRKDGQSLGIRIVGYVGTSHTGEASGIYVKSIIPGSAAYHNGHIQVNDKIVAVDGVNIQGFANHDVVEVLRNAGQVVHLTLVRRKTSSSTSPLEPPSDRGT
Chain of DLG4_3, P78352 (P78352 306-403): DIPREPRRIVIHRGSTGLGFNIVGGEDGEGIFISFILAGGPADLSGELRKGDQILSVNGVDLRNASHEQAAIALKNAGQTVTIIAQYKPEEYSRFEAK
Chain of PICK1, Q9NRD5 (Q9NRD5 17-115): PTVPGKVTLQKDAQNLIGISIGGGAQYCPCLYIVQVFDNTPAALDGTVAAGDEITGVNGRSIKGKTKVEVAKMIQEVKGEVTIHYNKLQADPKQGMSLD
Chain of IL16_3, Q14005 (Q14005 1107-1207): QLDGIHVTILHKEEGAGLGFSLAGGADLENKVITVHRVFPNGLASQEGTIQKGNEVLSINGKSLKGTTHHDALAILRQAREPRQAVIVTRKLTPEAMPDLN
Chain of Inadl_2, Q8NI35 (Q8NI35 238-335): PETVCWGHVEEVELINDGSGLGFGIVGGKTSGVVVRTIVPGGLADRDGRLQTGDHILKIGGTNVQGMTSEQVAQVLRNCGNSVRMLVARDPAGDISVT
Chain of ARHGEF12, Q9NZN5-2 (Q9NZN5 other isoform, or with tags, fused parts or gaps): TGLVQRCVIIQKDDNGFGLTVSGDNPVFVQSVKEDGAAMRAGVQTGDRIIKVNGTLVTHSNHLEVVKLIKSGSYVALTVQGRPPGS
Chain of AHNAK1, Q09666 (Q09666 4-100): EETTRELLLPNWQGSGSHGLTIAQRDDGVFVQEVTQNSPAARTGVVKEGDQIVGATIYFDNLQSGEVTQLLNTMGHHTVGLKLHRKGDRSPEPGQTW

KLVIKTETTV [RASSF6, Q6ZTQ3] was tested, and the pKd (GRIP2_5, Q9C0E4; [1]) was “below the threshold”, the pKd (GRID2IP_2, A4D2P6; [1]) was “below the threshold” and the pKd (GORASP2, Q9H8Y8; [1]) was 3.81. For the same binder, the pKd (PICK1, Q9NRD5; [1]) was “below the threshold”, the pKd (DLG4_3, P78352; [1]) was 4.39 and the pKd (ARHGEF12, Q9NZN5-2; [1]) was 3.82. The pKd (PARD3B_1, Q8TEW8; [1]) was “below the threshold”, the pKd (NHERF4_1, Q86UT5-2; [1]) was “below the threshold” and the pKd (DLG1_2, Q12959; [1]) was 5.55. The pKd (AHNAK1, Q09666; [1]) was “below the threshold”, the pKd (SCRIB_2, Q14160; [1]) was 3.95 and the pKd (GOPC, Q9HD26; [1]) was 3.53. For the same binder, the pKd (SNTA1, Q13424; [1]) was 4.36, the pKd (DLG2_3, Q15700; [1]) was 4.49 and the pKd (GRIP2_3, Q9C0E4; [1]) was “below the threshold”. For the same binder, the pKd (SNTG2, Q9NY99; [1]) was 3.99, the pKd (Inadl_2, Q8NI35; [1]) was “below the threshold” and the pKd (NHERF3_1, Q5T2W1; [1]) was “below the threshold”. The pKd (DFNB31_2, Q9P202; [1]) was “below the threshold”, the pKd (DLG5_1, Q8TDM6; [1]) was “below the threshold” and the pKd (TIAM2, Q8IVF5; [1]) was “below the threshold”. For the same binder, the pKd (Inadl_3, Q8NI35; [1]) was “below the threshold”, the pKd (SNX27, Q96L92; [1]) was 5.03 and the pKd (IL16_3, Q14005; [1]) was “below the threshold”. For the same binder, the pKd (SHANK1, Q9Y566; [1]) was “below the threshold”, the pKd (APBA1_1, Q02410; [1]) was “below the threshold” and the pKd (TJP1_3, Q07157; [1]) was “below the threshold”. The pKd (DLG4_2, P78352; [1]) was 5.48 and the pKd (MPDZ_5, O75970; [1]) was “below the threshold”.

In the case of KEYDDELTFF [USH1C, Q9Y6N9], the pKd (GRIP2_5, Q9C0E4; [2]) is reported as “below the threshold”, the pKd (GRID2IP_2, A4D2P6; [2]) is reported as “below the threshold” and the pKd (GORASP2, Q9H8Y8; [2]) is reported as 3.57. The pKd (PICK1, Q9NRD5; [2]) was “below the threshold”, the pKd (DLG4_3, P78352; [2]) was “below the threshold” and the pKd (ARHGEF12, Q9NZN5-2; [2]) was “below the threshold”. For the same binder, the pKd (PARD3B_1, Q8TEW8; [2]) was 4.52, the pKd (NHERF4_1, Q86UT5-2; [2]) was 3.6 and the pKd (DLG1_2, Q12959; [2]) was “below the threshold”. For the same binder, the pKd (AHNAK1, Q09666; [2]) was “below the threshold”, the pKd (SCRIB_2, Q14160; [2]) was “below the threshold” and the pKd (GOPC, Q9HD26; [2]) was “below the threshold”. For the same binder, the pKd (SNTA1, Q13424; [2]) was 3.49, the pKd (DLG2_3, Q15700; [2]) was “below the threshold” and the pKd (GRIP2_3, Q9C0E4; [2]) was “below the threshold”. For the same binder, the pKd (SNTG2, Q9NY99; [2]) was “below the threshold”, the pKd (Inadl_2, Q8NI35; [2]) was 4.09 and the pKd (NHERF3_1, Q5T2W1; [2]) was 4.27. The pKd (DFNB31_2, Q9P202; [2]) was “below the threshold”, the pKd (DLG5_1, Q8TDM6; [2]) was “below the threshold” and the pKd (TIAM2, Q8IVF5; [2]) was “below the threshold”. The pKd (Inadl_3, Q8NI35; [2]) was 3.89, the pKd (SNX27, Q96L92; [2]) was 4.51 and the pKd (IL16_3, Q14005; [2]) was “below the threshold”. The pKd (SHANK1, Q9Y566; [2]) was 5.25, the pKd (APBA1_1, Q02410; [2]) was “below the threshold” and the pKd (TJP1_3, Q07157; [2]) was “below the threshold”. For the same binder, the pKd (DLG4_2, P78352; [2]) was “below the threshold” and the pKd (MPDZ_5, O75970; [2]) was “below the threshold”.

In the case of DAAHHDESNC [FMNL3, Q8IVF7], the pKd (GRIP2_5, Q9C0E4; [3]) is reported as “below the threshold”, the pKd (GRID2IP_2, A4D2P6; [3]) is reported as “below the threshold” and the pKd (GORASP2, Q9H8Y8; [3]) is reported as “below the threshold”. For the same binder, the pKd (PICK1, Q9NRD5; [3]) was “below the threshold”, the pKd (DLG4_3, P78352; [3]) was “below the threshold” and the pKd (ARHGEF12, Q9NZN5-2; [3]) was “below the threshold”. The pKd (PARD3B_1, Q8TEW8; [3]) was “below the threshold”, the pKd (NHERF4_1, Q86UT5-2; [3]) was “below the threshold” and the pKd (DLG1_2, Q12959; [3]) was “below the threshold”. The pKd (AHNAK1, Q09666; [3]) was “below the threshold”, the pKd (SCRIB_2, Q14160; [3]) was “below the threshold” and the pKd (GOPC, Q9HD26; [3]) was “below the threshold”. For the same binder, the pKd (SNTA1, Q13424; [3]) was “below the threshold”, the pKd (DLG2_3, Q15700; [3]) was 3.62 and the pKd (GRIP2_3, Q9C0E4; [3]) was “below the threshold”. For the same binder, the pKd (SNTG2, Q9NY99; [3]) was “below the threshold”, the pKd (Inadl_2, Q8NI35; [3]) was “below the threshold” and the pKd (NHERF3_1, Q5T2W1; [3]) was “below the threshold”. For the same binder, the pKd (DFNB31_2, Q9P202; [3]) was “below the threshold”, the pKd (DLG5_1, Q8TDM6; [3]) was “below the threshold” and the pKd (TIAM2, Q8IVF5; [3]) was 3.8. For the same binder, the pKd (Inadl_3, Q8NI35; [3]) was “below the threshold”, the pKd (SNX27, Q96L92; [3]) was 4.2 and the pKd (IL16_3, Q14005; [3]) was “below the threshold”. The pKd (SHANK1, Q9Y566; [3]) was “below the threshold”, the pKd (APBA1_1, Q02410; [3]) was “below the threshold” and the pKd (TJP1_3, Q07157; [3]) was “below the threshold”. The pKd (DLG4_2, P78352; [3]) was “below the threshold” and the pKd (MPDZ_5, O75970; [3]) was “below the threshold”.
